Test results published in the nanobody polyreactivity screen of Harvey et al. (2022).

Assay: yeast display, Sf9 membrane polyspecificity reagent, FACS + sequencing; frameworks hold sequencing errors
How it was run: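 After 36–48 hours of galactose induction, yeast (Saccharomyces cerevisiae BJ5465) displaying a synthetic nanobody library were stained at 4 °C for 1 hour with 10% biotinylated, detergent-solubilized Sf9 membrane reagent. Streptavidin microbeads enriched the stained cells before FACS sorting into low and high (top ~1%) gates on anti-HA and streptavidin fluorescence. Each clone's polyreactivity label reflects its gate of origin.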

Sequence	polyreactivity (PSR sort gate)
QVQLVESGGGLVQAGGSLRLSCAASGFIFYLYTMGWYRQAPGKERELVAAITGGGGTYYADSVKGRFTISRDNAKNTVYLQMNSLKPEDTAVYYCAAEYYLYLWDEYDYWGQGTQVTVSS	high polyreactivity
QVQLVESGGGLVQAGGSLRLSCAASGSIFYNNAMGWYRQAPGKERELVAAISWRGGSTYYADSVKGRFTISRDNAKNTVYLQMNSLKPEDTAVYYCNAGVRYRGFDYWGQGTQVTVSS	high polyreactivity
QVQLVESGGGLVQAGGSLRLSCAASGITFKGYTMGWYRQAPGKERELVATISRGGRTYADSVKGRFTISRDNAKNTVYLQMNSLKPEDTAVYYCAADKYWAQNDYWGQGTQVTVSS	low polyreactivity
QVQLVESGGGLVQAGGSLRLSCAASGRIFDLNAMGWYRQAPGKERELVAAITFSGGDTYADSVKGRFTISRDNAKNTVYLEMYSLKPEDTAVYYCAKDHYGDDTYGTPYDYDYWGQGTQVTVSS	low polyreactivity
QVQLGESGGGLVQAGGSLRLICAASGRTFKKYPMGWYRQAPGKERDVVAAISWSGGTTYYAHSEKGRFTISRDTAKNTVYLQMNSLKPEDTAVYYSAARVSRTGHGYYYYWGQVTQVTVSS	high polyreactivity
QDQLVESGGGLVQAGGSLRLTCAASGSTFTTNVMGWYRQAPGKERDLVAAISWSSGSTYYADSVKGRFTISRDNAKNTVYLQMKSLKPEDTAVYYCAARLVIFYPYSRYYYWGQGTHVTVSS	high polyreactivity
QVQLQESGGVQAGGSLRLSCAASGYISRSDVMGWYRQAPGKERELVATINNGTITYYADSVKGRFTISRDNAKNTVYLQMNSLIPEDTAVHYCAVVQSDTDSLYYWGQGTQVTVSS	low polyreactivity
QVQLVESGGGLVQAGGTLRLSCAASGRTFKKYTMGWYRQAPGKERELVAVITSGGSTYYADSVKGRFTISRDNAKNTVYLQMNSLKPEDTAVYYCAVKYPELRTWGYYYWGQGTQVTVSS	high polyreactivity
QVQLVESGGGLVQAGGSLRLSSAASGYIFQYTAMGCYRQAPGKVRELVAAIRYRGTSTYYADSVKGRFTISRDNAKNTVYLQRNSLKPEDTAVYYCAADRVPGRGFFRYGYWGQGTQVTVSS	high polyreactivity
QVQLVESGGGLVQAGGSLRLSCAASGYTFVGYAMGWYRQAPGKERELVASISTGDSTYYADSVKGRFTISRDNAKNTVYLQMNSLKPEDTAVYYCAADFWEYEYPYDYWGQGTQVTVSS	low polyreactivity
QVQLVESGGGLVQAGGSLRLSCAASGSIFPDYAMGWYRQAPGKERELVAAITTSGGNTYYADSVKGRFTISRDNAKNTVYLQMNSLKPEDTAVYYCAAEITYSYPGSPRRRDYWGQGTQLTVSS	low polyreactivity
QVQLVESGGGLVQAGGSLRLTCAASGSIFYRYVMGWYRQAPGKEMELVAVISGSGGNTYYADSVKGRFTISRDNAKNTVYLQRNSLTPDDTAVYYCAASWYFLPTQTRPYYGYYYWGQATQVTVSS	high polyreactivity
QVQLVESGGGLVQAGGSLRLSCAASGSTFLLYAMGWYRPAPGKERELVATISWGGDGTYYADSVKGRFTISRDNAKNTVYLQMNSLKPEDTAVYYCAAESYLVQFYFLYYYWGQGTQVTVSS	low polyreactivity
QVQLVESGGGLVQAGGSLRLSCAASGSTFFLYGRGWYRQARGKERELVATISKRGGSTHYADSVKGRFTISRDNAKNTVYVQKHSLKPEDTAVYYCAAGRPGVSFKEWSYKPSSSYDYWGQGTQVTVSS	low polyreactivity
QVQLVESGGGLVQAGGSLRLSCAASGRIFRSNTMGWYRQAPGKERELVAAITRRGGSTYYADSVKGRFTISRDNAKNTVYLQLNSLKPEDTAVYYCAAVKSYYSEYGYWGQGTQGTVSS	high polyreactivity
QVQLVESGGGLVQAGGSLRLSCAASGAIFVPYAMGWYRQAPGKERELVAAITYSDGSTYYADSVKGRFTISRDNAKNTVYLQMNSLKPEDTAVYYCAAEWIEFPDPVSWYYYTPYYYWGQGTQVTVSS	high polyreactivity
QVQLVESGGGLVQAGGSLRLSCAATGSTFRYYAMGWYRQAPGKERELVAAISASGSSTYYADSVKGRFTISRHNAKNTVFLQMYSLKPEDTAVYYCATRQFYVRLGYYSWGQGTQVTVSS	high polyreactivity
QVQLVESGGGLVQAGGSLRLSCAASGSTFYYYAMGWYRQAPGKEREFVAAITWSGGSTYYADSVKGRFTISRDNAKNTVYLQMNSLKPEDTAVYYCAKDQRYYYYGGGDYWGQGTQVTVSS	low polyreactivity
QVQLVESGGGLVQAGGSLRLSCAASGFTFRWYAMGWYRQAPGKERELVAAISSSGGSTYYADSVKGRFTISRDNAKNTVYLQMKSLKPEDTAVYYCNTDANYLTNTIYDYWGQGTQVTVSS	high polyreactivity
QVQLVESGGGLVQAGGSLRLSCAASGNIFWAYAMGWYRQAPGKERELVAAISGRSGSTYYADSVKGRFTISRDNAKNTVYLQMNSLKPEDTAVYYCNARPRYTSGGYDYWGQGTQVTVSS	low polyreactivity
QVQLVESGGRLVQAGGSLRLSCAASGRIFRGYAMGWYRQEPGKERELVAAISQSGSSTYYADSVKGRFTISRDNAKNTVYLQMNSLKPEDTAVYYSAVIYVKHFGYWGLGTQVTVSS	high polyreactivity

Sequence	polyreactivity (PSR sort gate)
QVQLVESGGGLVQAGGSLPLSCAASGSIFTYNTMGSYRQAPGKERELVATISWSGGRTYYADSVKGRVTISRDNAKNTVYLQMNSLKPEDTAVYYCAAVYYSYYGYFLPYGYWGQGTQVTVSS	high polyreactivity
QVQLEESGGGLVQAGGRLRLSCSASGFICGSNAMGWYRQAPGKERELVAAISARGGSTYYADSVKGRFTISRDNAKNPVYLQMNSLKPEDTAVYYCNTGTSGRFLSFGNFDYWGQGTQVTVSS	high polyreactivity
QVQLVESGGGLVQAGGSLRLSCAASGRIFTPYARGWYRQAPGKERELVAAISGRGGSTYYADSVKGRFTISRDNAKNTVYLQMNSLKPEDTAVYYCAATYFYVYDYGLDYWGQGTQVTVSS	high polyreactivity
QVQHVESGGGLVQAGRSLRLSCAASGSIFRDNDMGWYRQATGKEREFVAAINWSGVSTYYADSVKGRFTISRDNAKNTVYLQMNSLKPEDTAVSYCAAGYLKWRRYNYWGQGTQVTVSS	high polyreactivity
QVQLVESGGGLVQAGGSLRLTCAASGSTFHSNAMGWYREAPGKERELVAAISQGGGRTYYADSVKGRFTISRDNAKNTVYLQMNSLKPEDTAVYYCNRRTRGLIDGGMDYWGQGTQVTLSS	low polyreactivity
QVQLVESGRVLVQAGGSLRLSCAASGITFISYAMGWYRPAPGKQSELVAVISKSGGRTYYADSVKGSFTISRDNANNTVYLQMNSLKPEDTAVYYCAADVYLSRYEKYGYWGQGTQVTVSS	high polyreactivity
QVQLVESGGGLVQAGGSLRLSCAASGSTFGGYVMGWYRQAPGKERELVAAISGNGASTTYADSVKGRFTISRDNAKNTVYLQLNSLKPEDTAVYYCAALYRKAHSDYDYWGQVTQVTVSS	low polyreactivity
QVQLVESGGGLVQAGGSLRLRCAASGFTFAPNAMGWYRQAPGKERELVAAITWSGGSTYYADSVKGRFTISRDNAKNTVYVQMNSLKPEDTAVYYCNAVSRSTVTGQHDFWGQGTQVTVSS	high polyreactivity
QVQLVESGGGLVQAGGSLRLSCAASGRIFWVYAMGGYRQAPGKERELVAAINTSVGRTHYADSVKGRFTISRDNAKNTVYLQMNSLKPEDTAVYYCAADVKRYGWEYGYWGQGTQVTVSS	low polyreactivity
QVQLVESGGGLVQAGGSLRLSCAASGLTFYYYAMGWYRQAPGKERELVASITKRGGSTYYADSVKGRFTISRDNAKNTVYLQMNSLKPEDTAVYYCAAQYRSQGQPKGGVLYYYWGQGTQVTVSS	high polyreactivity
QVQLVESGGGLVQAGGSLRLSCAASGGIFTPYAMGWYIQAPGKEREFVAGIRWSGVSTSYADSVKGRFTISRDNAKNTVYFQMNSLKPEDTAVSYCAATTHRWWVTFDYWGQGTQVTVSS	low polyreactivity
QVQLVESGGGLVQAGGSLRLSCAASGSTFDTNTMGWYIQAPGKERELVAAITSSGTSTSYADSVKGRFTISRDNAKNTVYLQMNSLKPEDTAVYYCAALRPGGGDYSDYDYWGQGTQVSVSS	low polyreactivity
QVQLVESGGGLVQAGGSLRLSCAASGNTVKGYAMGWYRQAPGKERELVAAISWSGSSTYYADSVKGRFTISRDNAKNTVYLQMNSLKPEDTAVYYCNRKYLGRYASVYGYGYWGQGTQVTVSS	high polyreactivity
QVQLVESGVGLVQGGGSLRLTCPASGFTFDWYAMGWYRPAPGKERELVAAISSSGTSTYYADSVKGRFTISRDTAKNTVYLQMNSLKPEDTAVYYCAARWYYVTPLRRYCYWGQGTQVTVSS	high polyreactivity
QVQLVESGGGLVQEGGSLRLSCAASGRISTYYTMGWYRQAPGKERELVAAISWSGTSTYYADSVKGRFTISRDNAKNTVYLQMNSLKPEDTAVYYCNARWRYPLDSVTDDYWGQGTQVTVSS	high polyreactivity
QVQLVESGGGLVQAGGSLRLSCAASGLTFSKYAMGWYRQAPGKERELVAAITRGDRTYYSDSVRGRFTISRDNAKNTVYLQMNRLKPEDTAVYYCAARQYYWGQGTQVTVSS	high polyreactivity
QVQLVESGGGLVQAGGRLRLSCAASGRTFNVNVMGWYRQAPGKERELVAAIRYTGGSTYADSVKGRFTISRDNAKNTVYLQMNSLKPEDTALYYCNADTFFPFDHGMDYWGQGTQVTVSS	low polyreactivity
QVQLEESGGGLVQAGGSLRLSCAATGLIFRTYAMGWYRQAPGKERELVAAISYSGGSTFYADSVNGRFTISRDNAKNTVYLQMNRLKPEDTAVYYCAADSRAKRYYWGQGTQVTVSS	high polyreactivity
QVQLVESGGGLVQAGGSLRLSCAASGRIFRWYAMGWYRQAPGKERELVAAISKSGGTTNYADSVKGRFTISRDNAKNTVYLQMNSLKPEDTAVYYCAARRYPYGGYGYRYDYWGQGTQVTVSS	high polyreactivity
QVQLVESGGGLVQAGGSLRLSCAASGFIFKYYTMGWYRQAPGKERELVAAISKNAGSTYYADSVKGRFTISRDNAKNTVYLQMNSLKPEDTAVYYCARTYSTWYYYWGQGTQVTVSS	high polyreactivity
